Laboratory results taken from US20150259430A1 (MAB DISCOVERY, published 2015).

Molecular target: T1, recombinant Fc chimeric conjugate of human HER3 (human, UniProt P21860 20-643)
T1 construct: extracellular domain; Coated on the ELISA plate
Experiment: ELISA, coated antigen
Description: Microtiter plates were coated with a) c-Met, IGF-1R, EGFR, HER2, and/or HER3 protein or b) EGFR, HER2, and/or HER3 (recombinant Fc chimeric conjugates of human c-Met, IGF-1R, EGFR, HER2, HER3 or IL12 Rβ1). After a blocking process, specific antibodies from B-cell supernatants bind to the targets and are then detected by a POD-labeled anti-rabbit IgG antibody. The IL12R binding was used as a counter-screen.
12.5 μL 0.5 μg/mL protein in PBS was transferred to a microtiter plate incubated and washed 3× with Wash Buffer. 90 μL Block Buffer was added to each well, incubated and washed. 12.5 μL Standard Antibody (Anti-EGF-Receptor; HER2 Rabbit anti-Human Monoclonal (extracellular domain) (SP3) Antibody; HER3 (N-terminal) antibody; start concentration 2 μg/ml; IL-12Rbeta1 antibody start concentration 500 ng/ml) in 1:2 dilutions or sample diluted in ELISA buffer was added, incubated and washed. 12.5 μl 1:5000 POD-Antibody (Anti-rabbit IgG, peroxidase-linked species-specific Fab2 fragment (from donkey) (ECL); assay dilution: 1:5000) in Elisa Buffer was added, incubated and washed. 15 μl TMB was added and 15 μl HCl was added after sufficient development. Absorbance (Optical Density O.D.) was read at 450 nm/620 nm.

T1 sequence (P21860 20-643, change not shown): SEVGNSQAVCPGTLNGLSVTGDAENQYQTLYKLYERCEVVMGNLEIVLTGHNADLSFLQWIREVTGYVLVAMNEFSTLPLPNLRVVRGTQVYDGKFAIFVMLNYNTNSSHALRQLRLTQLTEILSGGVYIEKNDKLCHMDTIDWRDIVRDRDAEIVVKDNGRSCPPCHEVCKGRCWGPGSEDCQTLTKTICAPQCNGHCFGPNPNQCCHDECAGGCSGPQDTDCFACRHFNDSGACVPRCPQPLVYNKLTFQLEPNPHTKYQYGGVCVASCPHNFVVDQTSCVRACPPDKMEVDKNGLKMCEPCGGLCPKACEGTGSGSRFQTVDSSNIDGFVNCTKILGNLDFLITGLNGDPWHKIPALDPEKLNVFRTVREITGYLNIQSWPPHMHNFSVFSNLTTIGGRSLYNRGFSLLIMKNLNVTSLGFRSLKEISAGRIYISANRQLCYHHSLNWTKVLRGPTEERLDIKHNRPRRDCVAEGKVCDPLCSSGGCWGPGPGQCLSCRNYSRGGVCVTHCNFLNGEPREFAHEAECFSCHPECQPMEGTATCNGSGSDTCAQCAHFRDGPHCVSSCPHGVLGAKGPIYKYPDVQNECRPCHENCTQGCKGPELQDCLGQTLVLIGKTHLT

B1: Antibody 45 (antibody, V domains shown)
VH: QSVEESGGRLVTPGTPLTLTCTVSGFSLSSYAMTWVRQAPGKGLEWIGIIDHSRATYYANWAKGRFTISKTSSTTVDLKVTSLTTEDTATYFCARFFNPGGSGYLRLWGQGTLVTVSS
VL: DVVMTQTPASVSEPVGGTVTIKCQASQIISNWLAWYQQKPGQPPKLLIYGASILASGVPSRFKASRSGTDYTLTIGDLECADAATYYCQCPDYSDTSLGSFGGGTEVVVR
notes: rabbit IgG in B-cell supernatant
binding result: no binding (tested: OD 0.1 or lower)

B2: Antibody 79 (antibody, V domains shown)
VH: QSVEESGGRLVTPGTPLTLTCTVSGFSLSSNAMSWVRQAPGKGLEWIGIINIYGSTNYASWAKGRFTISKTSSTTVDLKITSPTTEDTATYFCARDYGGVSATRLDLWGQGTLVTVSS
VL: DVVMTQTPASVEAAVGGTVTIKCQASQSIGSYLSWYQQKPGQPPKLLIYDASNLEDGVPSRFKGSGSGTEYTLTISDLECADAVTYYCQCTYGYGISSSYGNAFGGGTEVVVK
notes: as for B1
binding result: no binding (tested: OD 0.1 or lower)

B3: Antibody 18 (antibody, V domains shown)
VH: QSVEESGGRLVTPGTPLTLTCTVSGFSLSTYWMSWVRQAPGKGLEYIGFINTGGNAYYASWAKGRFTISKTSTSVDLKITSPTTEDTATYFCAGAYVGDVGDGYALTLWGQGTLVTVSS
VL: DVVMTQTPASVSEPVGGTVTIKCQASQSIGNKLAWYQQVPGQPPKLLIYSASPLASGVSSRFKGSRSGTEYTLTISDLECADAATYYCQCTYYGSSGNAFGGGTEVVVK
notes: as for B1
binding result: no binding (tested: OD 0.1 or lower)

B4: Antibody 21 (antibody, V domains shown)
VH: QEHLEESGGGLVKPPGSLTLTCTASGFSFSSTYYICWVRQAPGKGLEWIGCIYAGSGTTYYASWAKGRFTISKTSSTTVTLQMASLTAADTATYFCARSSDSWTYGMDLWGPGTLVTVSS
VL: DIVMTQTPASVSEPVGGTVTIKCQASQSISSYLAWYQQKPGQPPKRLIYKASTLASGVPSRFKGSGSGTDFTLTISDLECADAATYYCQCTYGNTGSNFFYGFGGGTEVVVK
notes: as for B1
binding result: no binding (tested: OD 0.1 or lower)

B5: Antibody 20 (antibody, V domains shown)
VH: QSLEESGGGLVQPEGSLTLTCTASGLDASSNCWVCWVRQAPGKGLEWIACIYAIGSGVTYYASWVNGRFSISKTSSTTVTLQMTSLTVADTATYLCARVLNGVGYIDLWGPGTLVTVSS
VL: DIVMTQTPSSVEAAVGGTVTIKCQASQSVYNNNWLAWYQQIPGQPPKLLIYESSTLASGVPSRFKGSGSGTQFTLTISDVQCDDAAMYYCQTYYYSSSRTYAFGGGTEVVVK
notes: as for B1
binding result: no binding (tested: OD 0.1 or lower)

B6: Antibody 6 (antibody, V domains shown)
VH: QSVEESGGRLVTPGTPLTLTCTVSGFSLSSYTMGWVRQAPGKGLEYIGIINTGGYTYYASWAKGRFTISRTSTTVDLSMTSLTTEDTATYFCARVYPGSSCDLWGQGTLVTVSS
VL: DVVMTQTPASVSEPVGGTVTIKCQASQSISSSYLSWYQQKPGQPPKLLIYRASTLESGVPSRFKGSGSGTEFTLTISDLECADAATYYCQCTDYAGSYVGGAFGGGTEVVVK
notes: as for B1
binding result: no binding (tested: OD 0.1 or lower)

B7: Antibody 72 (antibody, V domains shown)
VH: QSLEESGGRLVTPGTLLTLTCTASGIDLSGHAMAWVRQAPGKGLEWIGIIYDNGITNYPTWAKGRFTISKTSTTVELKFTSPTTEDTATYFCARDTGNGALRLTLWGPGTLVTVSS
VL: DIVMTQTPSPVSAAVGGTVTIKCQASQSIGSWLSWYQQKPGQRPKLLIYGASTLESGVPSRFKGSGSGTEFTLTISDLECADAATYYCHCTYGSVSGNAFGGGTEVVVK
notes: as for B1
binding result: no binding (tested: OD 0.1 or lower)

B8: Antibody 88 (antibody, V domains shown)
VH: QSVEESGGRLVTPGTPLTLTCTVSGFPLSSYVMSWVRQAPGTGLEYIGIVGIGGSAYYASWAKGRFTISRTSTTVDLKMTSLTPEDTATYFCARGAGGNFYSPLDLWGQGTLVTVSS
VL: DIVMTQTASPLSGAVGGTVTIKCQASQSISNELAWYQQKPGQRPKLLIYLASTLASGVPSRFKGSGSGTDFTLTISDLECADAATYYCQSYSDTSSISYGYGFGGGTEVVVK
notes: as for B1
binding result: no binding (tested: OD 0.1 or lower)

B9: Antibody 15 (antibody, V domains shown)
VH: QSVEESGGRLVTPGTPLTLTCTVSGFSLNSHAMSWVRQAPGKGLEWIGIISSSGSAWYATWVKGRFTISKTSTTVDLKMTSLTTEDTATYFCARDSAMVPSNFNLWGQGTLVTVSS
VL: AIEMTQSPPSLSASVGETVRIRCLASEFLFNAVSWYQQKPGKPPTLLISGASNLESGVPPRFSGSGSGTDYTLTIGGVQAEDVATYYCLGDFSGGADLTFGAGTKVEIK
notes: as for B1
binding result: no binding (tested: OD 0.1 or lower)

B10: Antibody 1 (antibody, V domains shown)
VH: QSLEESGGRLVTPGTPLTLTCTASGFSLSSYAMIWVRQAPGEGLEYIGIIITGGSAYYANWAKGRFTISRTSTTVDLKMTSLTTEDTATYFCARGYSGSSGDLWGQGTLVTVSS
VL: DVVMTQTPASVSEPVGGTVTIKCQASQSISSWLSWYQQKPGQPPKLLIYGASNLASGVSSRFKGSRSGTEYTLTISDLECADAATYYCQCTDYTSKYVGAFGGGTEVLVR
notes: as for B1
binding result: no binding (tested: OD 0.1 or lower)

B11: Antibody 74 (antibody, V domains shown)
VH: QSVEESGGRLVTPGTPLTLTCTVSGFSLSSGYMNWVRQAPGKGLEWIGRIHTLSGSIWYASWVKGRFTISKTSTTVDLKMTSLTTKDTATYFCARGNAGGSIEYGMDLWGPGTLVTVSA
VL: AYDMTQTPASVEAAVGGTVTIKCQASESITNYLNWYQQKPGQPPKLLIYSASTLASGVPSRFKGSGSGTQFTLTISGVECADAGTYYCQQGYSLINVGDIFGGGTEVVVR
notes: as for B1
binding result: no binding (tested: OD 0.1 or lower)

B12: Antibody 34 (antibody, V domains shown)
VH: QEQLVESGGGLVQPEGSLTLTCKASGFSFSSGYYMCWVRQAPGKGLEWIACIYADSSESTYYASWAKGRFTISKTSSTTVTLQVTSLTAADTATYFCARWGTVAGYSTFNLWGPGTLVTVSS
VL: DVVMTQTPASVSEPVGGTVTIKCQASQSISTALAWYQQKPGQPPKLLIYFTSTLASGVSSRFKGSGSGAEFTLTISDLECADAATYYCQGYYYVTNFPFGGGTEVVVK
notes: as for B1
binding result: no binding (tested: OD 0.1 or lower)

B13: Antibody 78 (antibody, V domains shown)
VH: QSVEESGGRLVTPGTPLTLTCTVSGIDLSSYWMIWVRQAPGEGLEYIGFISNGGGAYYANWTKGRFTISRTSTTVDLKMTSLTTEDTATYFCARAYTTVTIGGFDLWGPGTLVTVSS
VL: AYDMTQTPASVEVAVGGTVTINCQASQNIYNGLAWYQQKPGQPPKLLIYLASTLASGVPSRFKGSGSGTEFTLTISDLECADAATYYCQQGFSVNNVGNVFGGGTEMVVK
notes: as for B1
binding result: no binding (tested: OD 0.1 or lower)

B14: Antibody 9 (antibody, V domains shown)
VH: QEQLEESGEGLVKPGTPLTLTCTASGFSLSSGDMSWVRQAPGKGLEWIGTIGVDGSTDYANWAEGRFTISRTSTTVDLKMTSPTTEDTATYFCARGLFDDYTFNLWGQGTLVTVSS
VL: AYDMTQTPASVEVAVGGTVTIKCQASQNIYTYLSWYQQKPGQPPKLLIYKTSTLASGVPSRFSGSGSGTEYTLTVSGVQCDDAATYYCQQGYTTSSNVATPFGGGTEVVVK
notes: as for B1
binding result: no binding (tested: OD 0.1 or lower)
